IntAct's records for PubMed 31704776

B1: Meiotic recombination protein REC114 (Homo sapiens), Q7Z4M0 (parent)
chain: MAEAGKVPLSLGLTGGEAAEWPLQRYARCIPSNTRDPPGPCLEAGTAPCPTWKVFDSNEESGYLVLTIVISGHFFIFQGQTLLEGFSLIGSKDWLKIVRRVDCLLFGTTIKDKSRLFRVQFSGESKEQALEHCCSCVQKLAQYITVQVPDGNIQELQLIPGPPRATESQGKDSAKSVPRQPGSHQHSEQQQVCVTAGTGAPDGRTSLTQLAQTLLASEELPHVYEQSAWGAEELGPFLRLCLMDQNFPAFVEEVEKELKKLAGLRN
partner: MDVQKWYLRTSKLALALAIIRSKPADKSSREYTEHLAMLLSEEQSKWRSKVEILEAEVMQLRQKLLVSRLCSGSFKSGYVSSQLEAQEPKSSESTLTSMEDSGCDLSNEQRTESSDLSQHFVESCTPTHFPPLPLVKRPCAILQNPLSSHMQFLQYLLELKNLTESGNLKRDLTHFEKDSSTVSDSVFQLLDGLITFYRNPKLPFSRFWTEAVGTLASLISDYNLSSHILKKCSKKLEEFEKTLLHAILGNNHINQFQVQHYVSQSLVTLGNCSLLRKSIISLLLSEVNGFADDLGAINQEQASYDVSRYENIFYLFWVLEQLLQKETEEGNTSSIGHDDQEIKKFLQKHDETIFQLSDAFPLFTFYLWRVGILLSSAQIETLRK

Variants of: B1
Settings: with mei4_human MEI4, A8MW99

| Variant | effect of a mutation on the interaction |
| --- | --- |
| MAEAGKVPLSLGLTGGEAAEWPLQRYARCIPSNTRDPPGPCLEAGTAPCPTWKVFDSNEESGYLVLTIVISGHFFIFQGQTLLEGFSLIGSKDWLKIVRRVDCLLFGTTIKDKSRLFRVQFSGESKEQALEHGCSCVQKLAQYITVQVPDGNIQELQLIPGPPRATESQGKDSAKSVPRQPGSHQHSEQQQVCVTAGTGAPDGRTSLTQLAQTLLASEELPHVYEQSAWGAEELGPFLRLCLMDQNFPAFVEEVEKELKKLAGLRN [C133G] | with no effect |
